Measurements reported in patent CN114262377A (XINJIANG YOUMAI BIOTECHNOLOGY CO LTD, dated 2022).

T1: cyno-CD70-His (cynomolgus monkey, UniProt A0A2K5WTU9 39-190)
T1 construct: also called 食蟹猴CD70蛋白; 猴CD70; not shown: His tag
T1 sequence: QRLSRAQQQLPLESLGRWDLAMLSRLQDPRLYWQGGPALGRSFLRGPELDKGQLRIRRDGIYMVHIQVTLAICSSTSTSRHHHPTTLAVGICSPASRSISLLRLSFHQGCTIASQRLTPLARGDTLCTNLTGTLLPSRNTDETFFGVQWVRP

T2: human CD70-His (human, UniProt P32970 39-193, limits assumed)
T2 construct: also called 重组CD70蛋白; human CD70-His (Cat#CDL-H82D7); not shown: His tag
T2 sequence (looked up): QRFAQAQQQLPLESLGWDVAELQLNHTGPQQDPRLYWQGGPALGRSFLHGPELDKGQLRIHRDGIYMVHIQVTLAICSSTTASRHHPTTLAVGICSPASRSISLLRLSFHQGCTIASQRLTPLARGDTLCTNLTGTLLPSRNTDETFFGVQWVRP

T3: mouse CD70-His (mouse, UniProt O55237 45-195, limits assumed)
T3 construct: also called 鼠CD70; not shown: His tag
T3 sequence (looked up): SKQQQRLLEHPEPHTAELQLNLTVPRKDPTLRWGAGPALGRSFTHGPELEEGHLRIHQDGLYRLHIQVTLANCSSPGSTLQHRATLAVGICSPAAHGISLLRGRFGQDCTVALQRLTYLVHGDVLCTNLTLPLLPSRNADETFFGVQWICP

T4: CD70 on 卵巢癌细胞SKOV3 (UniProt P32970 1-193, limits assumed)
T4 construct: whole, on cells; also called 肿瘤细胞
T4 sequence (looked up): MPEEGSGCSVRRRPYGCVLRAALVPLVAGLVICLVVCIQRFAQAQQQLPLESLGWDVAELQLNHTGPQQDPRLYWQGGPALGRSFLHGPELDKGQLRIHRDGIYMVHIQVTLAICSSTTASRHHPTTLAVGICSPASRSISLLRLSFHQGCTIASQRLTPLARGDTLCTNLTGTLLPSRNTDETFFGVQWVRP

T5: mFc-CD70
T5 sequence (P32970 whole entry, species assumed, looked up): T4 sequence (looked up)

B1: CHO细胞表达的含有人IgG-Fc结构域的CD70纳米抗体VHH-B6-Fc (Fc fusion)
chain: QVQLQESGGGSVQAGGSLRLSCVASDLIVNDGCMAWFRQVPGKEHEGVARIAIPTTPGSTLYADSVKGRFTISRDGAKNTLYLQMNSLKPEDTAVYYCAADQWASRGCTAIATIPAEFDYWGQGTQVTVSS
notes: Order VHH then Fc follows the printed name; also called XJ-B6; VHH-B6 (as named in the results of the Fc-format assays); not shown: human IgG Fc domain
B2: CHO细胞表达的含有人IgG-Fc结构域的CD70纳米抗体VHH-B3-Fc (Fc fusion)
chain: LQESGGGSVQAGGSLRLSCAASGIIVNDGCMAWFRQVPGKEREGVAGIVIGEYGGGTTYYADSVKGRFTISRDRAKNTLYLQMNSLKPEDTAMYYCAADQWASGGCTSIATFSDEFDYWGQGTQVTVSS
notes: Order VHH then Fc follows the printed name; also called XJ-B3; VHH-B3 (as named in the results of the Fc-format assays); not shown: human IgG Fc domain

Legend:
cyno-CD70-His = molecular target: T1, cyno-CD70-His; experiment: ELISA, cyno-CD70-His coated 0.5 ug/ml, HRP-anti-human Fc
human CD70-His [1] = molecular target: T2, human CD70-His; experiment: ELISA, human CD70-His coated 0.5 ug/ml, HRP-anti-human Fc
mouse CD70-His = molecular target: T3, mouse CD70-His; experiment: ELISA, mouse CD70-His coated 0.5 ug/ml, HRP-anti-human Fc
CD70 on 卵巢癌细胞SKOV3 = molecular target: T4, CD70 on 卵巢癌细胞SKOV3; experiment: flow cytometry (MFI) on SKOV3 cells, goat anti-human IgG Fc-FITC
mFc-CD70 = molecular target: T5, mFc-CD70; experiment: competition ELISA: blocks mFc-CD70 (75 ng/ml) binding to coated human CD27-His
human CD70-His [2] = molecular target: T2, human CD70-His; experiment: BLI (Fortebio), AHC sensor, antibody loaded at 4 ug/ml, human CD70-His trimer 60 nM in solution

Binder	EC50 (cyno-CD70-His)	EC50 (human CD70-His [1])	binding result (mouse CD70-His)	EC50 (CD70 on 卵巢癌细胞SKOV3)	IC50 (mFc-CD70)	Kd (human CD70-His [2])
B1	0.00571 µg/mL	0.0244 µg/mL	no binding	1.74 nM	0.0576 µg/mL	< 0.001 nM
B2		0.0251 µg/mL	no binding	0.374 nM	0.06 µg/mL	< 0.001 nM
